From patent US20220135701A1 (Genentech, published 2022)

Experiments:
[1] = target: T1, mouse MerTK (mouse, UniProt Q60805 23-496); test: SPR BIAcore T200, Ab captured, 25C
T1 construct: also called MuMER
T1 sequence (looked up): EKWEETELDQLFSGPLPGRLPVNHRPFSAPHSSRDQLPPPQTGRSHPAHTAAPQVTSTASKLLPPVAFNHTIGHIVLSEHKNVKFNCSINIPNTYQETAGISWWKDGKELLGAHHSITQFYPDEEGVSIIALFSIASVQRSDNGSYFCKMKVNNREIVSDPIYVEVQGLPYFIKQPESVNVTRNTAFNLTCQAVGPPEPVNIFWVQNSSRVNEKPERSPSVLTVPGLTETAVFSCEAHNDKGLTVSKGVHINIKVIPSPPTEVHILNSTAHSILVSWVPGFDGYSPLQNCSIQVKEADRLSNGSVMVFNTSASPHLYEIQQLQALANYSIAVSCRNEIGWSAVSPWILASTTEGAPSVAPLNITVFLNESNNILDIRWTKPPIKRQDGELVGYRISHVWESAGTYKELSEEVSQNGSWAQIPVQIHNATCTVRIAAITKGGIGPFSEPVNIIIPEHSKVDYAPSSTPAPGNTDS
Protocol: (§1) All binding affinity determinations were obtained using Surface Plasmon Resonance (SPR) measurements from a BIAcore™-T200 instrument. Briefly, each rabbit or humanized antibody was captured to achieve approximately 100 RU (Response Units). Then, 3-fold serial dilutions of MerTK from various species (0.4 nM to 100 nM) diluted in HBS-EP buffer (0.01M HEPES pH 7.4, 0.15M NaCl, 3 mM EDTA and 0.05% v/v surfactant P20) was injected into the BIAcore™-T200 instrument at 25° C. or 37° C. with a flow rate of 30 μl/min. Association rates (kₒₙ) and dissociation rates (koff) were calculated using a simple one-to-one Langmuir binding model (BIAcore T200 evaluation software version 2.0). The equilibrium dissociation constant (KD) was calculated as the ratio koff/kₒₙ.

[2] = target: T2, human MerTK (human, UniProt Q12866 26-499); test: SPR BIAcore T200, Ab captured, 25C
T2 construct: also called HuMER
T2 sequence: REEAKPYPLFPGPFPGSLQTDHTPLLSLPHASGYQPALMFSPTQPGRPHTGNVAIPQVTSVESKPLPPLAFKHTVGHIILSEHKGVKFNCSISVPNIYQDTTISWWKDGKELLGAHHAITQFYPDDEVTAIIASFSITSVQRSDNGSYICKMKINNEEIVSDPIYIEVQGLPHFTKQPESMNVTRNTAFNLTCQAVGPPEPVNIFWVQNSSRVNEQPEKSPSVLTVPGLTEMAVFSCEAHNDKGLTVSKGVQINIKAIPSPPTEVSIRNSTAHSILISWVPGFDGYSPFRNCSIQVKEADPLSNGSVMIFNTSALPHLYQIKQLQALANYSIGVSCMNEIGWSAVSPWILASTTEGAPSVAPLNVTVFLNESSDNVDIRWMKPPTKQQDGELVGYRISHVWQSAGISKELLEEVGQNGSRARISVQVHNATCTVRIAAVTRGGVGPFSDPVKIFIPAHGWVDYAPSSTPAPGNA
Protocol: as §1

[3] = target: T3, cynomolgus monkey MerTK (cynomolgus monkey, UniProt A0A2K5V1H9 32-505); test: SPR BIAcore T200, Ab captured, 25C
T3 construct: Soluble analyte in SPR; also called Cyno MerTK
T3 sequence: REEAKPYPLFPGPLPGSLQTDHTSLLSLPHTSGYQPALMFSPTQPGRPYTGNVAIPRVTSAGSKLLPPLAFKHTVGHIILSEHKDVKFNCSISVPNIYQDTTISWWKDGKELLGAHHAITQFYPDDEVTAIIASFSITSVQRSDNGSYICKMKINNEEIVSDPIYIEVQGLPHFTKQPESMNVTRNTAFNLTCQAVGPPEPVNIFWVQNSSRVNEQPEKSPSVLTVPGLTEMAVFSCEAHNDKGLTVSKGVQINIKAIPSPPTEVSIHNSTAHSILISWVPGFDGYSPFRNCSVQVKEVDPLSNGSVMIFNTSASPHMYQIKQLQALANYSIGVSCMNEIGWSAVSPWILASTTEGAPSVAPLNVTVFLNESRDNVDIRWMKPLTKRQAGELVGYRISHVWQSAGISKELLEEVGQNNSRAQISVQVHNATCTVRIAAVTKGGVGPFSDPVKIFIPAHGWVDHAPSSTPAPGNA
Protocol: as §1

[4] = target: T4, MuMER (E23-S496) (mouse, UniProt Q60805 23-496); test: SPR BIAcore T200, Ab captured, 25C
T4 construct: range 23-496; also called mouse MerTK extracellular domain
T4 sequence (looked up): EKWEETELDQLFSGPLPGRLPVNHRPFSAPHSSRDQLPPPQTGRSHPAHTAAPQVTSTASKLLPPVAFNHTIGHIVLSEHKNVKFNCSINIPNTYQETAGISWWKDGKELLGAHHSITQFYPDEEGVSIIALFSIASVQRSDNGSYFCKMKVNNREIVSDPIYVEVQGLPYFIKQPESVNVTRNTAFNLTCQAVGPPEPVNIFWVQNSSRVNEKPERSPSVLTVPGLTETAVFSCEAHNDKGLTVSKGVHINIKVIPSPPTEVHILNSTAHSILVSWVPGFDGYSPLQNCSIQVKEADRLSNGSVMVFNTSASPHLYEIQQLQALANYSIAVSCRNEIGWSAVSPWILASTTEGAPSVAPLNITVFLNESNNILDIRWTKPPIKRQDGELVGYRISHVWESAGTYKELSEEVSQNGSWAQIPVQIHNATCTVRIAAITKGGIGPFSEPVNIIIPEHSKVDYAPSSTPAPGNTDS
Protocol: (§2) Binding affinity determinations were obtained using Surface Plasmon Resonance (SRP) measurements from a BIAcore™-T200 instrument. Briefly, each rabbit antibody was captured to achieve approximately 100 RU (Response Units). Then, 3-fold serial dilutions of the various MerTK domains (0.4 nM to 100 nM) diluted in HBS-EP buffer (0.01M HEPES pH 7.4, 0.15M NaCl, 3 mM EDTA and 0.05% v/v surfactant P20) was injected into the BIAcore™-T200 instrument at 25° C. or 37° C. with a flow rate of 30 μl/min. Association rates (kₒₙ) and dissociation rates (koff) were calculated using a simple one-to-one Langmuir binding model (BIAcore T200 evaluation software version 2.0). The equilibrium dissociation constant (KD) was calculated as the ratio koff/kₒₙ.
(§3) Antibody epitope determination was assessed by BIAcore analysis for rabbit antibodies binding against both the human and mouse MerTK extracellular domain (HuMER R26-A499 and MuMER E23-S496), Ig1&2 domain, Ig1-only domain, and Ig2-only domain (TABLE 18). Human MerTK and its domains are shown in light gray, while mouse MerTK and its domains are shown in dark gray.

[5] = target: T5, HuMER (R26-A499) (human, UniProt Q12866 26-499); test: SPR BIAcore T200, Ab captured, 25C
T5 construct: Extracellular domain with both Ig-like and both fibronectin-like domains; also called human MerTK extracellular domain
T5 sequence: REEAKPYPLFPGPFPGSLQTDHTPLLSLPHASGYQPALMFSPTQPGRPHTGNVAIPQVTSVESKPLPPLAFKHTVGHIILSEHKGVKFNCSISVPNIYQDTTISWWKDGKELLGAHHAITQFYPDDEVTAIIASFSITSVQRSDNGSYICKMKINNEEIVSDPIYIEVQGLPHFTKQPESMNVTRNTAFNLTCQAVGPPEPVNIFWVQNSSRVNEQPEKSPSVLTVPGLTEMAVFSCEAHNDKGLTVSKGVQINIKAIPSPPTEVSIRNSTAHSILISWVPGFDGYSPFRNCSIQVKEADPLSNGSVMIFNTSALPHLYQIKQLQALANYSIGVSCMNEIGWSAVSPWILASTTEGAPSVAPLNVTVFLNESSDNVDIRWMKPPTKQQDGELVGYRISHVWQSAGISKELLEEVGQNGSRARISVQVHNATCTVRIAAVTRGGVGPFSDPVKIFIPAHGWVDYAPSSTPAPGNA
Protocol: as §2, §3

[6] = target: T2, human MerTK; test: SPR BIAcore T200, Ab captured, 37C
Protocol: as §2, with “Each humanized mutation variant was subject to BIAcore analysis to determine the important rabbit residues for binding and stability. Binding” for “Binding”, “humanized mutation variant” for “rabbit”, “human” for “the various”, “MerTK” for “MerTK domains”, “at” for “at 25° C. or”

| Binder | Kd [1] [nM] | Kd [2] [nM] | Kd [3] [nM] | Kd [4] [nM] | Kd [5] [nM] | Kd [6] [nM] |
| --- | --- | --- | --- | --- | --- | --- |
| Rbt8F4 (antibody, V domains shown, Recombinant rabbit monoclonal antibody, Expi293, protein A purified) VH: QSVQESGGRLVTPGTPLTLTCTVSGFSLINYPMSWVRQAPGKGLEWIGVISSTGGTNYASWAKGRFTISKTSTTVDLKITSPTTEDTATYFCARVDFLVYLGGAYIIWGLDLWGQGTLVTVSS VL: AAVLTQTPSPVSAAVGGTVTINCQSSPNIYSNYLSWFQQKPGQPPKILIYGASTLASGVPSRFKGSGSGTQFTLTISDVQCDDAATYYCAGGYSDSSEAYAFGGGTEVVVK | 2.3 | 44 | 14.7 | 2.3 | 44 |  |
| Rbt22C4 (antibody, V domains shown, Recombinant rabbit monoclonal antibody, Expi293, protein A purified) VH: QSVEESGGRLVTPGTPLTLTCTVSGFSLSTYSMSWVRQAPGKGLEWLGIVSVAIDPVYATWARGRFTISRTSTTVNLKITSPTTEDTATYFCVRVAFSTNGIPHRLDLWGQGTLVTVSS VL: AQVLTQTASSVSAAVGGTVTISCQSSPSVYNHNWLSWYQQKPGQPPKLLIYEASKLASGVPSRFSGSGSGTQFTLTISDVQCDEAATYYCAGGFSSGSDSFAFGGGTEVVVT | 2.2 | 94 | 82.2 | 2.2 | 94 |  |
| h9E3.FN.V1 HC V24A (antibody, human IgG1, name in Kabat numbering, V domains shown, Framework variant of h9E3.FN.v1 (human IgG1)) VH: EQQLVESGGGLIQPGGSLRLSCAASGFSLSSNAMSWVRQAPGKGLEWIGIISSSGSTYSASWAKGRFTISKDSSKNTMYLQMNSLRAEDTAVYFCARVGFFVGYGAYDYGIIHRLDLWGQGTLVTVSS VL: DAQLTQSPSTLSASVGDRVTITCQSSKSIYNNNWLSWYQQKPGKPPKLLIYDASDLASGVPSRFSGSGSGTEFTLTISSLQPDDFATYYCAGGYSGDSDYAFGGGTKVEIK |  |  |  |  |  | 8.7 |
| h9E3.FN.V1 LC L4M (antibody, human IgG1, name in Kabat numbering, V domains shown, Framework variant of h9E3.FN.v1 (human IgG1)) VH: EQQLVESGGGLIQPGGSLRLSCAVSGFSLSSNAMSWVRQAPGKGLEWIGIISSSGSTYSASWAKGRFTISKDSSKNTMYLQMNSLRAEDTAVYFCARVGFFVGYGAYDYGIIHRLDLWGQGTLVTVSS VL: DAQMTQSPSTLSASVGDRVTITCQSSKSIYNNNWLSWYQQKPGKPPKLLIYDASDLASGVPSRFSGSGSGTEFTLTISSLQPDDFATYYCAGGYSGDSDYAFGGGTKVEIK |  |  |  |  |  | 7.5 |
| h9E3.FN.V1 LC A2I (antibody, human IgG1, name in Kabat numbering, V domains shown, Framework variant of h9E3.FN.v1 (human IgG1)) VH: EQQLVESGGGLIQPGGSLRLSCAVSGFSLSSNAMSWVRQAPGKGLEWIGIISSSGSTYSASWAKGRFTISKDSSKNTMYLQMNSLRAEDTAVYFCARVGFFVGYGAYDYGIIHRLDLWGQGTLVTVSS VL: DIQLTQSPSTLSASVGDRVTITCQSSKSIYNNNWLSWYQQKPGKPPKLLIYDASDLASGVPSRFSGSGSGTEFTLTISSLQPDDFATYYCAGGYSGDSDYAFGGGTKVEIK |  |  |  |  |  | 10.7 |
| h9E3.FN.V1 LC P43A (antibody, name in Kabat numbering, V domains shown, Framework variant of h9E3.FN.v1 (human IgG1)) VH: EQQLVESGGGLIQPGGSLRLSCAVSGFSLSSNAMSWVRQAPGKGLEWIGIISSSGSTYSASWAKGRFTISKDSSKNTMYLQMNSLRAEDTAVYFCARVGFFVGYGAYDYGIIHRLDLWGQGTLVTVSS VL: DAQLTQSPSTLSASVGDRVTITCQSSKSIYNNNWLSWYQQKPGKAPKLLIYDASDLASGVPSRFSGSGSGTEFTLTISSLQPDDFATYYCAGGYSGDSDYAFGGGTKVEIK |  |  |  |  |  | 15 |
| Rbt13D8 (antibody, V domains shown, Recombinant rabbit monoclonal antibody, Expi293, protein A purified) VH: QSLEESGGRLVTPGTPLTLTCTVSGFSFSSYSMGWVRQAPGKGPEYIGVISASGTTYYASWVNGRFTISKTSTTMDLKMTSPTAADTATYFCARAAFTAYNRGSCVIHRLDLWGQGTLVTVSS VL: AQVLTQTASSVSAAVGGTVTINCQASQSVYDSKWLAWYQQKPGQPPKLLIYSASTLASGVPSRFKGSGSGTQFTLTISDLECDDAATYYCAGAYTDNIVFGGGTEVVVK | 1.2 | 4.3 | 3.8 | 1.2 | 4.3 |  |
